Measurements taken from the DeepSol protein solubility set.

Experiment: soluble on expression in E. coli; label from the status in PepcDB or PDB records

| Sequence | soluble on expression in E. coli |
| --- | --- |
| MKQEFSSIQFKAALLAAGLVLQVPAHANDGTIVITGAITDTTCIIEDPSDPNHTKVVQLPKISKSALKVKGDQAGRTPFTISLRDCPADLGNGVKVYFEPGPTTNYATGDLKAYKLAYATNPKATPLNSIVAATPATGVEIRISNLDDSKIPMGVDVTNQRAQGFNPVEQTGDTNKRTVTMRYLASYVKADGDIQASAITTYVGFSVVYP | not soluble |
| MKQFSGLSRTIQGNHLLDTCAIDILKIGHRPLVLCAKQEYNTTVESFVKVLTCHGLIVKIVYMEEWDQNSVEECGEVGFRHRADHIIGIGNSSVAACTKAVADLLDLPAVLIPTSPFTTLPWVSVENKKRERPLFNESIQLIIADREQLLTQPTSELINGVVNTLLYLAAIKEVKRNHLFSLVDDILIRSFESVLLRGSLQAIEDFEARILSKEVQDVLEVLSTCVTLDLPSDAWDVIQQIESKLSERREDLVDEPLKRNVVLYLLLSYLTQESEEFQARLKWCQQLLLSANSSNLLSLEAVLKEIALEMGEDGSTRC | soluble |
| MKQHQSADNSQGQLYIVPTPIGNLADITQRALEVLQAVDLIAAEDTRHTGLLLQHFGINARLFALHDHNEQQKAETLLAKLQEGQNIALVSDAGTPLINDPGYHLVRTCREAGIRVVPLPGPCAAITALSAAGLPSDRFCYEGFLPAKSKGRRDALKAIEAEPRTLIFYESTHRLLDSLEDIVAVLGESRYVVLARELTKTWETIHGAPVGELLAWVKEDENRRKGEMVLIVEGHKAQEEDLPADALRTLALLQAELPLKKAAALAAEIHGVKKNALYKYALEQQG | soluble |
| MKQIFIGIIRFYQKFISPMTPPTCRFYPTCSHYGLEAFQKHGALKGFWLTCKRILKCHPFHPGGFDPVPDKKDDKVNSLEHHHHHH | not soluble |
| MKQLTLAKTVKGVGIGLHKGEPIEITLEPLEANSGIVFFRSDLNASYKASPENVINTQMATVLGDDRGFISTIEHLMSAINAYGIDNVRIVLNANEAPVMDGSSISFCMMLDEAGVKELDAPKKIMVIKKPIEVRDGNKFVRLTPTKEPRINYTIKFDNAVIGEQSYNFEFSKKNYIENIARARTFGFLKDVQALRSMNLALGGSLENTIVVDENRILNPEGLRFKDEFVRHKILDAIGDLTLLGYRVFGDYTSYAGSHHLNHLLTKEVLKDKDAYEIVSLEKTTQKAYEKVFALEHHHHHH | soluble |
| MKQLYGVIGNPIGHSLSPVMHNDAFEHLKMDAHYHAFLVKEEVLGEAVRGLKALGISGFNVTTPHKVAIMDYLDEIDPLAKQIGAVNTVVHKDGKLIGYNTDGIGFVRALQSISSEPLQEKRILLLGAGGASRAIYFSLADAGVKEIDVANRTVDKAKELIAACTATVHSVALSLEKATKEQGNYDIIIQTTTIGMHPRVEHTPLQISSLKKGTIVSDIIYNPFETKILCEAKEQGAIIQNGIDMFVYQGALAFEMWTGCVPNIERMKQLVIRNLEANIYVNRKTKKIFTCTSTSFNTNFSSRKRRSK | not soluble |
| MKQPGEELQETLTELDDRAVVDYLIKNPEFFIRNARAVEAIRVPHPVRGTVSLVEWHMARARNHIHVLEENMALLMEQAIANEGLFYRLLYLQRSLTAASSLDDMLMRFHRWARDLGLAGASLRLFPDRWRLGAPSNHTHLALSRQSFEPLRIQRLGQEQHYLGPLNGPELLVVLPEAKAVGSVAMSMLGSDADLGVVLFTSRDASHYQQGQGTQLLHEIALMLPELLERWIERV | not soluble |
| MKQSLFGRVRDAILADFHNVLDEKERKNPIAMLNQYLRDSEREITKIEKLIERHKTLKSNFARELEQARYFVNKRSKQAIIAQEADELQLHERALEEVAYYEGQVTRLEEMYAGVVEQIDELERRLSEMKNKLKEMHAKRMELMARENMAHANRRMNTAMHKMDENNPFLRFEEIEDHIRDLETRMNEEHERDTFDMKIAKLEREMKEKNDVSLTKELTKLEHHHHHH | soluble |
| MKQTQRHDAIIELVKKQGYVSTEELVEHFSVSPQTIRRDLNDLAEQNMILRHHGGAALPSSSVNTPWHDRKATQTEEKERIARKVAAQIPNGSTLFIDIGTTPEAVAHALLGHSNLRIVTNNLNVANTLMAKEDFRIILAGGELRSRDGGIIGEATQDFIAQFRLDFGILGISGIDSDGSLLEFDYHEVRTKRAIIENSRHVMLVVDHSKFGRNAMVNMGSISMVDAVYTDTLPPPGVMQVLTENHIQLELCLEHHHHHH | soluble |
| MKQTVAAYIAKTLESAGVKRIWGVTGDSLNGLSDSLNRMGTIEWMSTRHEEVAAFAAGAEAQLSGELAVCAGSCGPGNLHLINGLFDCHRNHVPVLAIAAHIPSSEIGSGYFQETHPQELFRECSHYCELVSSPEQIPQVLAIAMRKAVLNRGVSVVVLPGDVALKPAPEGATMHWYHAPQPVVTPEEEELRKLAQLLRYSSNIALMCGSGCAGAHKELVEFAGKIKAPIVHALRGKEHVEYDNPYDVGMTGLIGFSSGFHTMMNADTLVLLGTQFPYRAFYPTDAKIIQIDINPASIGAHSKVDMALVGDIKSTLRALLPLVEEKADRKFLDKALEDYRDARKGLDDLAKPSEKAIHPQYLAQQISHFAADDAIFTCDVGTPTVWAARYLKMNGKRRLLGSFNHGSMANAMPQALGAQATEPERQVVAMCGDGGFSMLMGDFLSVVQMKLPVKIVVFNNSVLGFVAMEMKAGGYLTDGTELHDTNFARIAEACGITGIRVEKASEVDEALQRAFSIDGPVLVDVVVAKEELAIPPQIKLEQAKGFSLYMLRAIISGRGDEVIELAKTNWLR | soluble |
| MKQVCVLGNGQLGRMLRQAGEPLGIAVWPVGLDAEPAAVPFQQSVITAEIERWPETALTRQLARHPAFVNRDVFPIIADRLTQKQLFDKLHLPTAPWQLLAERSEWPAVFDRLGELAIVKRRTGGYDGRGQWRLRANETEQLPAECYGECIVEQGINFSGEVSLVGARGFDGSTVFYPLTHNLHQDGILRTSVAFPQANAQQQARAEEMLSAIMQELGYVGVMAMECFVTPQGLLINELAPRVHNSGHWTQNGASISQFELHLRAITDLPLPQPVVNNPSVMINLIGSDVNYDWLKLPLVHLHWYDKEVRPGRKVGHLNLTDSDTSRLTATLEALIPLLPPEYASGVIWAQSKFG | soluble |
| MKQWIAALLLMLIPGVQAAKPQKVTLMVDDVPVAQVLQALAEQEKLNLVVSPDVSGTVSLHLTDVPWKQALQTVVKSAGLITRQEGNILSVHSIAWQNDNIARQEAEQARAQANLPLENRSITLQYADAGELAKAGEKLLSAKGSMTVDKRTNRLLLRDNKTALSALEQWVAQMDLPVGQVELSAHIVTINEKSLRELGVKWTLADAQHAGGVGQVTTLGSDLSVATATTHVGFNIGRINGRLLDLELSALEQKQQLDIIASPRLLASHLQPASIKQESEIPYQVSSGESGATSVEFKEAVLGMEVTPTVLQKGRIRLKLHISQNVPGQVLQQADGEVLAIDKQEIETQVEVKSGETLALGGIFTRKNKSGQDSVPLLGDIPWFGQLFRHDGKEDERRELVVFITPRLVSSELEHHHHHH | not soluble |
| MKQYIPFIRKDPVVPVIRLQGVIASGPRGGLSDQGLAAVIEKAFRRGKPAGVALVINSPGGSPVQSSLIAARIRRLASEKGVRVHAFVEDVAASGGYWLACAGDEIWVDESSLVGSIGVIFSSFGFHEFMARNGIERRVHTAGRSKSLADPFLPEKPEDVERLKALQEPIHRAFIEYVKRHRGTRLDLNADLFNADVWTGQEAVRLGLADGVAHLVPKLQENYGDKVRLVPYGQRRPFLQRLGMSLAGQALAEVENRALWARYGLLEHHHHHH | not soluble |
| MKRDQLKSLLLGAILLAGITLPAKAQIGEQRHNFAIGINGGANYSTVSFQPTIKQNGLLGITGGVTARYISEKYFAMICGAQLELNFSQRGWDEKFDPEQGFSSEDSYVRTMNYLEIPFLAHLAFGKDKGVQFFVNLGPQIGLLLNESEKRKGTWETANRAPNEQYGKWVENKFDYGIVGGGGIEVRTKAGNFLLEGRYYFGLADFYNSTKKDYFSRSANSTITAKITYLFDIKK | not soluble |
| MKREEYLKNYLESYLRKKEVSLTEEEFNVILREFLRFAYNPEESGQEIADTADGSKTLIHKTYGEPYHSQTAGAIRESLYKFVRPSRILEKAKERKVIRILDVGFGLGYNLAVALKHLWEVNPKLRVEIISFEKELLKEFPILPEPYREIHEFLLERVPEYEGERLSLKVLLGDARKRIKEVENFKADAVFHDAFSPYKNPELWTLDFLSLIKERIDEKGYWVSYSSSLSVRKSLLTLGFKVGSSREIGRKRKGTVASLKAPVPPMEENEVRKLVLSPFAVPMRDEKLDKEPLEILIDYLLKVYKISR | soluble |
| MKREKKSFHLHMLSDATGETLISVGRAVASQYTMSQATEHIYPMIRNKTQLQRALDEIQQEPGIVLYTIIDKKIKILLRKRCEKIEIPCIDILHPVLNAFKSYLGIPTNLRVSAQHGLNADYFRRIEALDFTIEHDDGQSPNSLSDADVILVGISRTSKTPTSIYLANRGIKTANVPLIPGINLPDTLLGAKNALIIGLIASVERISHIRQNRNLGDDFSLESYTDRINISEELTYAKRICERFSWPVIDVTRRSIEETAAEIFELLSRFREGK | not soluble |
| MKRIARLLLSCICLALLSGCLYPQERLKQNQIPYKDQVAAVQSAVDEYRKATGGLLPIKTRDMNTPMYLKYPVDFQKLVPRYMQEPPGNAYESGGVFQYMIIDAETNPTVKLLDLRLAERIRDLKLRLSMYTDKHKYPPFQDVVAPGVFTLDYKKLGYKEPPYVVSPFSGNNLPFVIDGNGEIYIDYRSDLYAALKKYPHHYKPGDDIRPILTDHSLFVPAYSLPYTIDAKTNEPIFFTK | not soluble |
| MKRIDLLLNVLDSTFDKESWYAPFKYAIEGLTAEQAMWKPAGETTNTIWENVNHLTYYKERLAANLEGREWTHNLDGNDTFYLTKQSNNDTEWKEVVERSENAQRNLRQVLSAISERELEQNSLEGKLLDIMLHDAYHTGQIIQLRKMQGAWPSKR | not soluble |
| MKRIGLTGNIGCGKSTVAQMFRELGAYVLDADKLIHSFYRKGHPVYEEVVKTFGKGILDEEGNIDRKKLADIVFKDEEKLRKLEEITHRALYKEIEKITKNLSEDTLFILEASLLVEKGTYKNYDKLIVVYAPYEVCKERAIKRGMSEEDFERRWKKQMPIEEKVKYADYVIDNSGSIEETYKQVKKVYEELTRDPLEHHHHHH | soluble |
| MKRIGVLTSGGDSPGMNAAIRAVVRKAIFHDIEVYGIYHGYAGLISGHIEKLELGSVGDIIHRGGTKLYTARCPEFKDPEVRLKGIEQLKKHGIEGLVVIGGDGSYQGAKKLTEQGFPCVGVPGTIDNDIPGTDFTIGFDTALNTVIDAIDKIRDTATSHERTYVIEVMGRHAGDIALWAGLADGAETILIPEEEYDMEDVIARLKRGSERGKKHSIIVVAEGVGSAIDIGKHIEEATNFDTRVTVLGHVQRGGSPSAQDRVLASRLGARAVELLIAGKGGRCVGIQDNKLVDHDIIEALAQKHTIDKDMYQLSKELSI | not soluble |
| MKRMHNPAHPGEVLREYLGELTVTNAAAKLGVSRVALSRILNGTNGISADMALRLEDALGTSAEMWAAMQFKYDLWVASQQPRPKITRLHV | not soluble |
